This note sets out measurements from patent publication US20120201826A1 (NOV IMMUNE S A, published 2012).

Residue numbers refer to the chain shown, from its start.

The chains are these.
T1: recombinant human RANTES (huRANTES, Peprotech) (human, UniProt P13501 24-91)
T1 sequence: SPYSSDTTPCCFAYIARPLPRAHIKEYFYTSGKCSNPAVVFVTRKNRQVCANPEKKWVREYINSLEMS

T2: huRANTES immobilized on glycosaminoglycan (biotin labeled heparin) (human, UniProt P13501 24-91)
T2 construct: also called huRANTES immobilized on GAG; huRANTES in the context of GAG
T2 sequence: T1 sequence

B1: C8 scFv (scFv)
chain: QVQLVESGGGVVQPGRSLRLSCAASGFTFSSYAMHWVRQAPGKGLEWVAVISYDGSNKYYADSVKGRFTISRDNSKNTLYLQMNSLRAEDTAVYYCARETFPHYYYYYMDVWGRGTLVTVSSSYVLTQPPSVSVAPGQTARITCEGDDTDIGTVNWYQQKPGQAPVLVISEDGYRPSGIPERFSGSNSGNTATLTISRVEAGDEADYYCQFWDVDSDHPVFGGGTQLTVL
B2: E6 scFv (scFv)
chain: QVQLVQSGAEVEKPGASVKVSCRVSGYPLTEIAIHWVRQAPGKGLEWMGSFEPEDAEAIYAQRFQGRVTMTEETSANTAYMELSSLRSEDTAVYFCATDPYYASSGSNYMEVWGRGTLVTVSSNFMLTQPHSVSESPGKTVTISCTGSGGSISSNYVQWYRQRPGSAPSTVIYEDDQRPSGVPDRISGSIDSSSNSASLTISGLTTEDEADYYCHSYDGNNRWVFGGGTKLTVL
B3: D1 scFv (scFv)
chain: EVQLVQSGPEVKKPGATVKISCNVSAETFTDYYIHWVKQAPGRGLEWMGLVDSEEDGETLFAETFRGRVALTADRSTNTAYMELRSLRHDDTAVYYCAAEYGEYGFFQSWGQGTLVTVSSQSVLTQPPSVSGAPGQRVTISCTGSSSNIGADYDVNWYQQLPGTSPKLLIYGDINRPSGVPDRFSASKSGTSASLAITGLQAEDEADYYCQSFDNSLSGSVIFGGGTKLTVL
B4: 7B5 scFv (scFv)
chain: QVQLVQSGAEVKKPGASVKVSCKVSGYTLNDFAMHWVRQAPGKGLEWMGGYVPEDGDTIYAQKFQGRVTMTEDTSTDTAYMELSSLRSEDTAVYYCATDPLYSGSLSYWGQGTTVTVSSSYVLTQPPSVSVAPGQTARITCGGNNIESKSVHWYQQKPGQAPVLVVYDDSDRPSGIPERFSGSNSGNTATLTISRVEAGDEADYYCQVWDSGPVWWIFGGGTKLTVL
B5: G2 scFv (scFv)
chain: QVQLVQSGAEVKKPGASVKVSCRASGYALTELSIHWVRQAPGKGLEWMGGFDPEDGETIYAQNFQGRVIMTEDTSTDTAYMELSSLKSEDTAVYYCATDLTGSRDSWGQGTLVTVSSQSVLTQPASVSGSPGQSITISCTGSRSDIGYYNYVSWYQQHPGKVPKLIIYDVTERPSGVSDRFSGSKSANTASLTISGLQAEDEADYYCSSFSSGDTFVVFGGGTKLTVL
B6: E7 scFv (scFv)
chain: QVQLVQSGAEVKKPGSSVKVSCKISGGISDNYALSWVRQAPGQGLEWMGAVIPLVETTSYAQRFQGRLTITADDSLNTLYMELGSLRSDDTAMYYCAREQVAVGPGPTSNRGPDGLDVWGRGTMVTVSSQSVLTQPPSVSGAPGQRVTISCTGSSSNIGDGYDVHWYQQLPGTAPKLLIYGNSNRPSGVPDRFSGSTSGTSASLAIRGLQSEDEADYYCGTWDDILNGWVFGGGTKLTVL
B7: E10 scFv (scFv)
chain: QVQLVESGGGVVQPGRSLRLSCAASGFTFSSYAMHWVRQAPGKGLEWVAVISYDGSNKYYADSVKGRFSISRDNSKNTLYLQMNSLRAEDTAVYYCARETFPHYYYYYMDVWGKGTMVTVSSSYVLTQPPSVSVAPGQTARISCGGGNFDDEGVHWYQQTPGQAPVLVVYDDTGRPSGIPERFSGSSSGNTATLTISRVEAGDEADYYCQAWDSSNDHPVFGGGTQLTVL
B8: 1D9 scFv (scFv)
chain: QVQLVQSGAEVKKPGASVKVSCKVSGYTLTEFAMHWVRQAPGKGLEWMGGFVPEDGETIYAQKFQGRVTMTEDTSTDTAYMELSSLRSEDTAVYYCATDPLYTPGLEPWGQGTTVTVSSSYVLTQPPSVSVAPGQTARITCGGNNIESKSVHWYQQKPGQAPVLVVYDDSDRPSGIPERFSGSNSGNTATLTISRVEAGDEADYYCQVWDSNTDHWVFGGGTKLTVL
B9: 5E1 scFv (scFv)
chain: B4 chain with P100Y, S103I, G104P, G212N, P213T, V214D, W215H, I217V, L224V
B10: 4D8 scFv (scFv)
chain: B8 chain with T30N, E31D, F51Y, E57D, E107Y, P108V, L224V
B11: 1E4 scFv (scFv)
chain: B8 chain with T103E, P104G, G105S, L106F, E107S, P108V
B12: 6A8 scFv (scFv)
chain: B8 chain with T30N, E31D, F51Y, E57D, T103P, E107Q, L224V
B13: 3E7 scFv (scFv)
chain: B8 chain with T30N, E31D, F51Y, E57D, T103P, E107S, L224V
B14: 2D1 scFv (scFv)
chain: B4 chain with G212N, P213T, V214D, W215H, I217V, L224V
B15: H6 scFv (scFv)
chain: QVQLVQSGAEVKRPGASVKVSCKVSGNTLSKQSMHWVRQAPGKGFEWMGSSNPEDDETLYAKKFQGRVTMTEDTSTDTAYLELSSLRSEDTAVYYCATDSQGFYYYYGMDVWGQGTLVTVSSQSVLTQPPSVSGAPGQRVTISCTGSSSNIGADYDVHWYQQLPGTVPKLLIYDNINRPSGVPDRFSGSKSGTSASLAITGLQAEDEADYYCQSYDSSLSGVLFGGGTKVTVL
B16: H11 antibody, IgG1 format (antibody, V domains shown)
VH: QVQLVQSGAEVKKPGSSVKVSCKASGGISDNYALSWVRQAPGQGLEWMGGFIPLVDTTNYAQRFQGRLTITADDSMSTVYMELRSLRSDDTAMYYCAREQVAVGPGPTSDRGPDGLDVWGQGTMVTVSS
VL: QSVLTQPSSVSGAPGHRVTISCTGSNSNLGADYDVHWYQQLPGSAPKLLIYDNNIRPSGVPARFSGSKSGTSASLAITGLQAEDEADYYCQSYDTGLTSSDVIFGGGTKLTVL
B17: D1 antibody, IgG1 format (antibody, V domains shown)
VH: EVQLVQSGPEVKKPGATVKISCNVSAETFTDYYIHWVKQAPGRGLEWMGLVDSEEDGETLFAETFRGRVALTADRSTNTAYMELRSLRHDDTAVYYCAAEYGEYGFFQSWGQGTLVTVSS
VL: QSVLTQPPSVSGAPGQRVTISCTGSSSNIGADYDVNWYQQLPGTSPKLLIYGDINRPSGVPDRFSASKSGTSASLAITGLQAEDEADYYCQSFDNSLSGSVIFGGGTKLTVL
B18: E7 antibody, IgG1 format (antibody, V domains shown)
VH: QVQLVQSGAEVKKPGSSVKVSCKISGGISDNYALSWVRQAPGQGLEWMGAVIPLVETTSYAQRFQGRLTITADDSLNTLYMELGSLRSDDTAMYYCAREQVAVGPGPTSNRGPDGLDVWGRGTMVTVSS
VL: QSVLTQPPSVSGAPGQRVTISCTGSSSNIGDGYDVHWYQQLPGTAPKLLIYGNSNRPSGVPDRFSGSTSGTSASLAIRGLQSEDEADYYCGTWDDILNGWVFGGGTKLTVL
B19: CG11 antibody, IgG1 format (antibody, V domains shown)
VH: QVQLVQSGTEVKKPGATVNVSCKISGHLFTDYYIHWVQQAPGKGLEWVGLIDPKDGEIQYAEKFQARVTITADTSTDTVYMELNSLRSEDTAVYYCATEVLSGIRVFPFDPWGQGTLVTVSS
VL: QSVLTQPPSVSGAPGQRVTISCTGSSSNIGAGYDVYWYQQFPGKAPKLLIYDTNNRPPGVPDRFSGSKSGTSASLAISGLQTEDEADYYCQSYDIALSNSNVVFGGGTKLTVL
B20: A9 antibody, IgG1 format (antibody, V domains shown)
VH: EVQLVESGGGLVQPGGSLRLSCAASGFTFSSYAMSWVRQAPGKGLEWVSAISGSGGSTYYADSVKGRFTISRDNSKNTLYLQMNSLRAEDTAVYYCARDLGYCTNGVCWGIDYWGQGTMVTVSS
VL: NFMLTQPHSVSESPGKTVTISCTRSSGSIADNYVQWYQQRPGSAPTTIIYDDDQRLSGVPDRFSGSIDTSSNSASLSISGLRTEDEADYYCQSYDDSNDVFGGGTKLTVL
B21: H6 antibody, IgG1 format (antibody, V domains shown)
VH: QVQLVQSGAEVKRPGASVKVSCKVSGNTLSKQSMHWVRQAPGKGFEWMGSSNPEDDETLYAKKFQGRVTMTEDTSTDTAYLELSSLRSEDTAVYYCATDSQGFYYYYGMDVWGQGTLVTVSS
VL: QSVLTQPPSVSGAPGQRVTISCTGSSSNIGADYDVHWYQQLPGTVPKLLIYDNINRPSGVPDRFSGSKSGTSASLAITGLQAEDEADYYCQSYDSSLSGVLFGGGTKVTVL

For the first assay, the target named is T1, recombinant human RANTES (huRANTES, …). The assay is described as follows: cell-based or functional assay.
B1: the “Chemotaxis IC50 (nM); L1.2 cells expressing hCCR5, 1 nM huRANTES; scFv format” value (shortened to “Chemotaxis IC50 (nM) … scFv format”) stood at 90 nM.
Same read-out and setting: for B2 the value was 72 nM; for B3, 22 nM; for B4, 1.6 nM.
The same measure, in the same setting: for B5 the value was 62 nM; for B6, 3.8 nM; for B7, 9.4 nM.
On the same count and under the same terms, the same measure for B8: 0.82 nM; for B9: 0.2 nM; for B10: 0.08 nM.
Regarding B11, the “Chemotaxis IC50 (nM) … scFv format” value stood at 1.25 nM.
Still for that read-out and setting: the same measure for B12: 0.94 nM; for B13: 0.47 nM.
On to B14, for which the “Chemotaxis IC50 (nM) … scFv format” value was found to be 1.3 nM.
For B15, the “Chemotaxis IC50 (nM) … scFv format” value was 25 nM.

The target of a further assay is T2, huRANTES immobilized on …. The assay is described as follows: ELISA: biotin-heparin on streptavidin plate, huRANTES captured on the heparin, IgG detected with anti-human IgG Fc-HRP, OD450; antibody concentration not given.
As to B16, the binding result is on record as “no binding”.
For the molecule B17, the binding result is recorded as “no binding”.
Same read-out and setting: for B18 the value was “no binding”; for B19, “no binding”; for B20, “no binding”.
With B21, the binding result is “no binding”.

For a further assay, the target named is T1, recombinant human RANTES (huRANTES, …). The assay is described as follows: cell-based or functional assay. This is another data set of the same source.
For the molecule B16, the “Chemotaxis IC50 (nM), 1 nM huRANTES; L1.2-hCCR5 cells; IgG1 format” value (from here on “Chemotaxis IC50 (nM), 1 nM huRANTES”) was determined as 1.3 nM.
Same read-out and setting: the same measure for B17: 7 nM.
Same read-out and setting: the same measure for B18: 2.2 nM.
As for B19, the “Calcium Flux IC50 (nM), 10 nM rhuRANTES; L1.2-hCCR5 cells; IgG1 format” value worked out at 9.5 nM and the “Chemotaxis IC50 (nM), 1 nM huRANTES” value is 4.8 nM.
Take B20: the “Calcium Flux IC50 (nM), 10 nM rhuRANTES; L1.2-hCCR5 cells; IgG1 format” value worked out at 3.3 nM and the “Chemotaxis IC50 (nM), 1 nM huRANTES” value turned out to be 1 nM.
For B21, in that order: 9 nM and 8.7 nM.
